Results reported in the supplement of paper PMC7877785.
± gives the uncertainty stated by the source.

Assay: self-splicing fitness, log relative to wild type (ln ratio); higher = more splicing; Tetrahymena group I intron in knt gene, E. coli kanamycin selection, DiMSum; sequences stand for … in CUCUCU…GGAGGGAAAAGUUAUCAGGCAUGCACCUGGUAGCUAGUCUUUAAACCAAUAGAUUGCAUCGGUUUAAAAGGCAAGACCGUCAAAUUGCGGGAAAGGGGUCAACAGCCGUUCAGUACCAAGUCUCAGGGGAAACUUUGAGAUGGCCUUGCAAAGGGUAUGGUAAUAAGCUGACGGACAUGGUCCUAACCACGCAGCCAAGUCCUAAGUCAACAGAUCUUCUGUUGAUAUGGAUGCAGUUCACAGACUAAAUGUCGGUCGGGGAAGAUGUAUUCUUCUCAUAAGAUAUAGUCGGACCUCUCCUUAAUGGGAGCUAGCGGAUGAAGUGAUGCAACACUGGAGCCGCUGGGAACUAAUUUGUAUGCGAAAGUAUAUUGAUUAGUUUUGGAGUACUCGUGGUCG
Summary of the method: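 DiMSum derived fitness as the error-weighted combination of fold changes across replicates, kanamycin versus no kanamycin, normalised to wild type. E. coli BL21(DE3) held the library, which randomised all eight P1ex-region intron nucleotides within the knt kanamycin-resistance gene on pET-22b(+). Six replicate transformations grew overnight at 37°C or 30°C on LB agar with or without 25 μg/mL kanamycin, also containing 100 μg/mL carbenicillin, 50 μM IPTG and 0.2% rhamnose, and pooled colonies were amplicon-sequenced on an Illumina HiSeq 2500.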

| Sequence | self-splicing fitness (ln) (30 °C) | self-splicing fitness (ln) (37 °C) |
| --- | --- | --- |
| AGGCAGCAAUAUUACGGUAU | -1.79 ± 0.093 | -0.467 ± 0.1 |
| AGGCAGCAAUAUUACGGUCA | -0.0713 ± 0.069 | -0.148 ± 0.079 |
| AGGCAGCAAUAUUACGUCAC | -1.74 ± 0.13 | -1.25 ± 0.28 |
| AGGCAGCAAUAUUACGUCUC | -4.52 ± 0.23 | -2.03 ± 0.14 |
| AGGCAGCAAUAUUACGUGGC | -2.88 ± 0.2 | -2.58 ± 0.22 |
| AGGCAGCAAUAUUACGUGUA | -2.19 ± 0.1 | -1.09 ± 0.11 |
| AGGCAGCAAUAUUACGUUCG | -0.642 ± 0.079 | -0.181 ± 0.11 |
| AGGGAGCAAUAUUACGAAGU | -2.4 ± 0.37 | -2.14 ± 0.32 |
| AGGGAGCAAUAUUACGACAC | – | -1.18 ± 0.29 |
| AGGGAGCAAUAUUACGACAG | -2.9 ± 0.13 | -2.62 ± 0.22 |
| AGGGAGCAAUAUUACGACCU | -4.11 ± 0.33 | -1.67 ± 0.25 |
| AGGGAGCAAUAUUACGAGAG | -3.23 ± 0.4 | -3.84 ± 0.46 |
| AGGGAGCAAUAUUACGAGUC | -2.9 ± 0.3 | – |
| AGGGAGCAAUAUUACGAUUU | -2.26 ± 0.18 | -1.92 ± 0.29 |
| AGGGAGCAAUAUUACGCAAG | – | -1.54 ± 0.3 |
| AGGGAGCAAUAUUACGCCAU | -3.13 ± 0.43 | – |
| AGGGAGCAAUAUUACGCCUA | -1.43 ± 0.26 | -1.68 ± 0.21 |
| AGGGAGCAAUAUUACGCGCU | -2.13 ± 0.23 | -0.719 ± 0.39 |
| AGGGAGCAAUAUUACGCGUU | – | -2.46 ± 0.44 |
| AGGGAGCAAUAUUACGGUAA | – | -2.46 ± 0.44 |
| AGGGAGCAAUAUUACGGUUA | -2.53 ± 0.17 | -2.98 ± 0.28 |
| AGGGAGCAAUAUUACGGUUC | – | -1.7 ± 0.42 |
| AGGGAGCAAUAUUACGUAAA | -3.55 ± 0.31 | -2.73 ± 0.44 |
| AGGUAGCAAUAUUACGAAUA | -2.28 ± 0.026 | -1.51 ± 0.037 |
| AGGUAGCAAUAUUACGACGU | 0.156 ± 0.014 | 0.233 ± 0.033 |
| AGGUAGCAAUAUUACGAGCU | -0.0909 ± 0.015 | -0.123 ± 0.034 |

| Sequence | self-splicing fitness (ln) (30 °C) | self-splicing fitness (ln) (37 °C) |
| --- | --- | --- |
| AGGUAGCAAUAUUACGAGUC | -3.864 ± 0.037 | -2.49 ± 0.043 |
| AGGUAGCAAUAUUACGAUGA | -0.948 ± 0.016 | -0.562 ± 0.034 |
| AGGUAGCAAUAUUACGCCCC | -1.92 ± 0.044 | -1.56 ± 0.063 |
| AGGUAGCAAUAUUACGCUCC | -3.31 ± 0.052 | -2.43 ± 0.064 |
| AGGUAGCAAUAUUACGCUGG | -3.816 ± 0.035 | -2.83 ± 0.046 |
| AGGUAGCAAUAUUACGGAGG | -4.103 ± 0.034 | -3.11 ± 0.043 |
| AGGUAGCAAUAUUACGGCCC | -2.77 ± 0.044 | -1.91 ± 0.058 |
| AGGUAGCAAUAUUACGGCGU | -0.0406 ± 0.013 | 0.231 ± 0.033 |
| AGGUAGCAAUAUUACGGGAG | -3.83 ± 0.03 | -2.39 ± 0.038 |
| AGGUAGCAAUAUUACGGUCG | -0.351 ± 0.014 | -0.0478 ± 0.034 |
| AGGUAGCAAUAUUACGGUGA | -1.732 ± 0.017 | -1.06 ± 0.033 |
| AGGUAGCAAUAUUACGUACU | -0.29 ± 0.014 | -0.101 ± 0.034 |
| AGGUAGCAAUAUUACGUCAU | -2.147 ± 0.016 | -1.03 ± 0.034 |
| AGGUAGCAAUAUUACGUCGG | -2.803 ± 0.022 | -1.63 ± 0.036 |
| AGGUAGCAAUAUUACGUGGC | -3.619 ± 0.028 | -2.74 ± 0.042 |
| AGUAAGCAAUAUUACGAAAG | -4.26 ± 0.37 | – |
| AGUAAGCAAUAUUACGAAGG | -3.7 ± 0.2 | -2.07 ± 0.26 |
| AGUAAGCAAUAUUACGACUG | -1.45 ± 0.12 | 0.23 ± 0.15 |
| AGUAAGCAAUAUUACGAGAG | -2.28 ± 0.24 | -2.49 ± 0.29 |
| AGUAAGCAAUAUUACGAGCC | -0.632 ± 0.16 | -0.472 ± 0.17 |
| AGUAAGCAAUAUUACGCACU | -3.07 ± 0.29 | -1.79 ± 0.29 |
| AGUAAGCAAUAUUACGCAGG | -3.42 ± 0.23 | -1.43 ± 0.2 |
| AGUAAGCAAUAUUACGCAUG | -3.12 ± 0.17 | -1.95 ± 0.23 |
| AGUAAGCAAUAUUACGCCGG | -2.45 ± 0.39 | -1.99 ± 0.34 |
| AGUAAGCAAUAUUACGCGAG | -3.33 ± 0.21 | -1.75 ± 0.15 |
